Test results taken from the supplement of paper PMC9112550, “Optimization of the antimicrobial peptide Bac7 by deep mutational scanning” (BMC Biology, 2022).

system: Escherichia coli TOP10; test: shrunken log2 fold change of peptide-encoding DNA abundance (4.5 h post-induction vs induction); higher = less antimicrobial activity (less host growth inhibition); conditions: time post-induction: 4.5 h; library: site-saturation at positions 5, 18, 19, 20
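Further: peptides expressed intracellularly from a pBAD plasmid library in pooled LB shake-flask culture, induced with 0.3% L-arabinose, DNA abundance read by NGS, three biological replicates, DESeq2 with apeglm shrinkage.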

Sequence	shrunken log2 fold change
RRIRLRPPRLPRPRPRPEYAPRP	-0.000852
RRIRQRPPRLPRPRPRPRVAPRP	0.337
RRIRLRPPRLPRPRPRPPYVPRP	-0.0415
RRIRGRPPRLPRPRPRPDQGPRP	0.347
RRIRWRPPRLPRPRPRPVQWPRP	0.251
RRIRLRPPRLPRPRPRPYPIPRP	0.107
RRIRKRPPRLPRPRPRPYVGPRP	-0.0717
RRIRSRPPRLPRPRPRPTPVPRP	0.381
RRIRQRPPRLPRPRPRPQSLPRP	-0.0818
RRIRDRPPRLPRPRPRPDYAPRP	0.016
RRIRDRPPRLPRPRPRPFIRPRP	-0.29
RRIRKRPPRLPRPRPRPVDPPRP	0.417
RRIRWRPPRLPRPRPRPGNFPRP	-0.149
RRIRCRPPRLPRPRPRPGLIPRP	4.01e-05
RRIRWRPPRLPRPRPRPTMTPRP	0.328
RRIRDRPPRLPRPRPRPMYQPRP	-0.075
RRIRARPPRLPRPRPRPLGYPRP	0.223
RRIRERPPRLPRPRPRPDHHPRP	-0.478
RRIRGRPPRLPRPRPRPRMIPRP	0.646
RRIRMRPPRLPRPRPRPGEGPRP	1.23
RRIRKRPPRLPRPRPRPARVPRP	0.857
RRIRFRPPRLPRPRPRPHSCPRP	-0.249
RRIRTRPPRLPRPRPRPQSWPRP	0.234
RRIRWRPPRLPRPRPRPWLTPRP	-0.0976
RRIRCRPPRLPRPRPRPIAYPRP	-0.113

Sequence	shrunken log2 fold change
RRIRHRPPRLPRPRPRPHIIPRP	-0.192
RRIRMRPPRLPRPRPRPEMQPRP	2.83
RRIRWRPPRLPRPRPRPLDYPRP	-0.314
RRIRWRPPRLPRPRPRPSIWPRP	-0.353
RRIRERPPRLPRPRPRPHEWPRP	-0.155
RRIRHRPPRLPRPRPRPIIGPRP	-0.00804
RRIRCRPPRLPRPRPRPYMTPRP	-1.06
RRIRERPPRLPRPRPRPFPQPRP	2.37
RRIRVRPPRLPRPRPRPQEYPRP	0.0203
RRIRSRPPRLPRPRPRPKTIPRP	-0.174
RRIRNRPPRLPRPRPRPHRMPRP	-0.0233
RRIRYRPPRLPRPRPRPPLHPRP	-0.455
RRIRVRPPRLPRPRPRPTVKPRP	0.0641
RRIRNRPPRLPRPRPRPRGHPRP	0.347
RRIRCRPPRLPRPRPRPRASPRP	0.282
RRIRRRPPRLPRPRPRPWWEPRP	1.82
RRIRFRPPRLPRPRPRPFLPPRP	-0.208
RRIRVRPPRLPRPRPRPEFHPRP	-0.489
RRIRWRPPRLPRPRPRPVQAPRP	0.36
RRIRKRPPRLPRPRPRPHRPPRP	0.172
RRIRVRPPRLPRPRPRPQTVPRP	-0.0217
RRIRCRPPRLPRPRPRPFHDPRP	-0.727
RRIRTRPPRLPRPRPRPESTPRP	-0.0383
RRIRVRPPRLPRPRPRPGSAPRP	0.179
RRIRLRPPRLPRPRPRPEFHPRP	-0.113

Sequence	shrunken log2 fold change
RRIRKRPPRLPRPRPRPYLRPRP	-0.0481
RRIRLRPPRLPRPRPRPKPWPRP	0.387
RRIRLRPPRLPRPRPRPAHKPRP	0.384
RRIRWRPPRLPRPRPRPTYMPRP	-0.0572
RRIRSRPPRLPRPRPRPWQRPRP	0.074
RRIRTRPPRLPRPRPRPNDDPRP	-0.519
RRIRQRPPRLPRPRPRPAYHPRP	-0.826
RRIRARPPRLPRPRPRPMPQPRP	0.378
RRIRFRPPRLPRPRPRPCWYPRP	-0.225
RRIRMRPPRLPRPRPRPKLRPRP	-0.0111
RRIRLRPPRLPRPRPRPWFQPRP	-0.0555
RRIRDRPPRLPRPRPRPDIKPRP	0.543
RRIRGRPPRLPRPRPRPLHAPRP	1.54
RRIRGRPPRLPRPRPRPTAFPRP	1.19
RRIRHRPPRLPRPRPRPAINPRP	-0.221
RRIRFRPPRLPRPRPRPTSVPRP	-0.0668
RRIRCRPPRLPRPRPRPGGNPRP	-0.0575
RRIRLRPPRLPRPRPRPWMMPRP	0.00744
RRIRFRPPRLPRPRPRPSGYPRP	0.00547
RRIRMRPPRLPRPRPRPQMHPRP	0.947
RRIRCRPPRLPRPRPRPNFVPRP	-0.123
RRIRARPPRLPRPRPRPPNDPRP	0.459
RRIRMRPPRLPRPRPRPPYMPRP	-0.135
RRIRNRPPRLPRPRPRPDLSPRP	-0.0537
RRIRTRPPRLPRPRPRPQMGPRP	-0.0284

Sequence	shrunken log2 fold change
RRIRRRPPRLPRPRPRPGQHPRP	-0.0579
RRIRKRPPRLPRPRPRPLWDPRP	0.609
RRIRYRPPRLPRPRPRPIYEPRP	0.0166
RRIRSRPPRLPRPRPRPQTEPRP	-0.0463
RRIRTRPPRLPRPRPRPWNSPRP	-0.0351
RRIRLRPPRLPRPRPRPNCSPRP	0.121
RRIRVRPPRLPRPRPRPLQLPRP	-0.091
RRIRGRPPRLPRPRPRPKNKPRP	0.375
RRIRVRPPRLPRPRPRPDHMPRP	-0.384
RRIRTRPPRLPRPRPRPYDHPRP	-0.097
RRIRSRPPRLPRPRPRPKCYPRP	-0.16
RRIRKRPPRLPRPRPRPDEAPRP	3.09
RRIRCRPPRLPRPRPRPDIPPRP	-0.331
RRIRMRPPRLPRPRPRPAMKPRP	-0.00492
RRIRKRPPRLPRPRPRPPKIPRP	0.405
RRIRRRPPRLPRPRPRPYQWPRP	-0.244
RRIRYRPPRLPRPRPRPMFGPRP	-0.143
RRIRLRPPRLPRPRPRPQEHPRP	-0.167
RRIRWRPPRLPRPRPRPHRDPRP	-0.215
RRIRGRPPRLPRPRPRPISGPRP	0.000749
RRIRPRPPRLPRPRPRPHYSPRP	-0.167
RRIRARPPRLPRPRPRPVAYPRP	0.0127
RRIRCRPPRLPRPRPRPPPKPRP	1.51
RRIRWRPPRLPRPRPRPYYSPRP	-0.181
RRIRTRPPRLPRPRPRPQLGPRP	-0.0516

Sequence	shrunken log2 fold change
RRIRERPPRLPRPRPRPIFNPRP	-0.663
RRIRARPPRLPRPRPRPLYGPRP	-0.203
RRIRDRPPRLPRPRPRPWGFPRP	0.13
RRIRVRPPRLPRPRPRPGQQPRP	0.026
RRIRHRPPRLPRPRPRPFPMPRP	-0.651
RRIRFRPPRLPRPRPRPEVHPRP	-0.309
RRIRERPPRLPRPRPRPRCFPRP	-0.128
RRIRDRPPRLPRPRPRPNLGPRP	-0.00884
RRIRPRPPRLPRPRPRPEYHPRP	-0.0649
RRIRIRPPRLPRPRPRPHAFPRP	-0.0152
RRIRERPPRLPRPRPRPTKIPRP	-0.19
RRIRQRPPRLPRPRPRPVMQPRP	0.0499
RRIRQRPPRLPRPRPRPWSAPRP	-0.277
RRIRHRPPRLPRPRPRPVPDPRP	-0.526
RRIRERPPRLPRPRPRPHWSPRP	-0.71
RRIRNRPPRLPRPRPRPWCCPRP	0.007
RRIRPRPPRLPRPRPRPNMYPRP	-0.746
RRIRIRPPRLPRPRPRPCIVPRP	-0.562
RRIRKRPPRLPRPRPRPGQTPRP	0.611
RRIRNRPPRLPRPRPRPNMPPRP	-0.407
RRIRTRPPRLPRPRPRPWAKPRP	0.057
RRIRDRPPRLPRPRPRPTYNPRP	-0.365
RRIRVRPPRLPRPRPRPIFIPRP	-0.328
RRIRYRPPRLPRPRPRPGAWPRP	0.0731
RRIRYRPPRLPRPRPRPHDQPRP	-0.188

Sequence	shrunken log2 fold change
RRIRFRPPRLPRPRPRPFSRPRP	0.184
RRIRTRPPRLPRPRPRPPFPPRP	0.256
RRIRQRPPRLPRPRPRPDKWPRP	-0.00997
RRIRSRPPRLPRPRPRPRSDPRP	0.223
RRIRERPPRLPRPRPRPDTEPRP	-0.0215
RRIRIRPPRLPRPRPRPETFPRP	-0.202
RRIRWRPPRLPRPRPRPHEGPRP	-0.102
RRIRNRPPRLPRPRPRPAKIPRP	-0.405
RRIRRRPPRLPRPRPRPMVIPRP	-0.189
RRIRIRPPRLPRPRPRPNDKPRP	-0.647
RRIRGRPPRLPRPRPRPEAEPRP	2.74
RRIRNRPPRLPRPRPRPETGPRP	2.57
RRIRTRPPRLPRPRPRPNQHPRP	-0.354
RRIRGRPPRLPRPRPRPLIHPRP	0.324
RRIRARPPRLPRPRPRPVMTPRP	-0.00766
RRIRGRPPRLPRPRPRPPSGPRP	0.766
RRIRLRPPRLPRPRPRPECVPRP	0.148
RRIRMRPPRLPRPRPRPQCKPRP	-0.0461
RRIRHRPPRLPRPRPRPCMLPRP	-0.151
RRIRTRPPRLPRPRPRPRQLPRP	0.187
RRIRSRPPRLPRPRPRPASHPRP	-0.167
RRIRARPPRLPRPRPRPNAFPRP	0.424
RRIRGRPPRLPRPRPRPCGVPRP	0.578
RRIRQRPPRLPRPRPRPKSQPRP	0.32
RRIRERPPRLPRPRPRPHCQPRP	0.00361
